System: SUMO1-trypsinogen fusion, chloroplast-targeted, extracted from N. benthamiana leaves and refolded
Sequence (chain, as listed by the source): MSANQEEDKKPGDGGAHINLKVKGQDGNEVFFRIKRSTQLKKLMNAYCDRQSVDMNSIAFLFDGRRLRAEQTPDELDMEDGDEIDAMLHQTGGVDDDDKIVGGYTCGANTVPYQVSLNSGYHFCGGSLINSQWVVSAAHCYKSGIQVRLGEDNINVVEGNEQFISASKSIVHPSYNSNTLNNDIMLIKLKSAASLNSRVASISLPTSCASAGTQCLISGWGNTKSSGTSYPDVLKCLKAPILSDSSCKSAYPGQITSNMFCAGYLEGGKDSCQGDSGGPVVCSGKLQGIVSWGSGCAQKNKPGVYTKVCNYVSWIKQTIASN

Substance: enterokinase (Sigma, cat. no. E0885)
- kinetics of BAPNA cleavage (absorption at 405 nm) after enterokinase treatment of the folding reaction: refolded and enterokinase-treated SUMO1-trypsinogen fusion produces active trypsin capable of digesting the substrate BAPNA

Source: patent US20110055976
